The text below walks through data of publication PMC11266516.

The target of this experiment is Fc gamma receptors on mouse peritoneal macrophages (mouse (endogenous in peritoneal macrophages)). Put plainly: flow cytometry on cells; ImageStream X imaging flow cytometry; peritoneal wash cells (2 x 10^6) in 100 uL 1% BSA PBS stained with 0.125 ug mouse IgG-DyLight 405 and anti-CD11b-FITC, 30 min, room temperature; no Fc block. (In flow cytometry, cells or beads pass a laser one at a time.)

The substance “mouse IgG-DyLight 405 (fluorescently conjugated mouse monomeric IgG) (antibody)” registered a percent of CD11b+ macrophages that bound exogenous IgG of 98.6%.
